This note sets out measurements from the nanobody polyreactivity screen of Harvey et al. (2022).

A short description of the data set: yeast display, Sf9 membrane polyspecificity reagent, FACS + sequencing; frameworks hold sequencing errors. The method, boiled down: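 A synthetic nanobody library was expressed on Saccharomyces cerevisiae BJ5465 by galactose induction for 36–48 hours. The library was stained for 1 hour at 4 °C with 10% biotinylated, detergent-solubilized Sf9 membrane reagent and enriched with streptavidin microbeads before FACS. Low and high (top ~1%) gates were set on anti-HA fluorescence for expression and streptavidin fluorescence for reagent binding, and each polyreactivity label reflects the gate of origin.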
On to “QVQLVESGGGLGQAGGSLRLSCAPSGFIFTLYAMGWYRQAPGKERELVAAIDTSVASTYYADSVKGRFTLSRENAKYTVYLQMNSLKPEDTAVYYCNADGASYLILSYYQPYDYWGQGTQVTVSS”, for which the “polyreactivity (PSR sort gate)” value was “low polyreactivity”.

Consider “QVQLVESGGGLGQAGGSLRLSCASSGFTFVPYAMVWYSPAPGKERELVAAIDFDDATTYYADSVKGRFTISRDNAKNTVYLQMNSMKPEDTALYYCAADGFYAPDDAPFYYWGQGTQVTVSS”, for which the “polyreactivity (PSR sort gate)” value is on record as “high polyreactivity”.

For “QVQLVESGGGLGQAGGSLRLSCTASGRIFPYYAMGWYRQAPGKERELVAALSGRGGRTYYADSVKGRFTISRDNAKNTVYLQMNSLNPEDTAVYYCNARVQAVHYGYWGQGTQVTVSS”, the “polyreactivity (PSR sort gate)” value is reported as “high polyreactivity”.

Turning to “QVQLVESGGGLGQAGGSLRLTCAASGSIFRSYAMGWYRQAPGKESEFVATISSSTGSTYYADSVKGRFSISRDNAKNTVYLPMNSLKPEFTAVYYCAAVQPVKSSSGYHFWYYWGQGTQVTVSS”, the “polyreactivity (PSR sort gate)” value was “high polyreactivity”.

“QVQLVESGGGLGQAGGSLRLTCAASGSTFDYYAMGWYRPAPRKERELVAAISSSGSSTYYADSVKGRFTISRDIAKNTVYLQMNSLNPEDTAVYFCAIGTNYRDDYWGQGTQVTVSS”: the “polyreactivity (PSR sort gate)” value was “low polyreactivity”.

Turning to “QVQLVESGGGLGQAGGSLSLSCAAYGRIYSRYAMGWYRQAPGKERELVAAINSGGITNYADSVKGRFTISRDNAKNTVYLQMNSLNPEDTAVYYCAAQARRSWGKYYYWGQGTQVPVSS”, the “polyreactivity (PSR sort gate)” value is given as “high polyreactivity”.

Take “QVQLVESGGGLIQAGGSLRLSCAASGIIFYPYTMGWYRPAPGKERELVAAIRQSGTSTYYADSVKGRFTISRDNAKKTVYFQMNSLKPEDTAVYYCNADDHIYWRKGYDYWGQGTQVTVSS”: the “polyreactivity (PSR sort gate)” value is on record as “low polyreactivity”.

As to “QVQLVESGGGLIQAGGSLRLSCAASGSNFRYYALGWYRQAPGKESELVAAISQSGGSTHYAESVKGRFTISRDNAKITVYLQMNSLKAEDTAVYYCAKHWGPGTQVTVSS”, the “polyreactivity (PSR sort gate)” value is on record as “low polyreactivity”.

On to “QVQLVESGGGLIQAGGSLRLSCAASGSTFGTYTRGWYRQAPGKERELVAAIRSGGITYYADSVKGRFTISRDNAKNTVYLQMNSLKPEDTAVYYCAKQYTGEPAMEYWGQGTQVTVSS”, for which the “polyreactivity (PSR sort gate)” value is given as “low polyreactivity”.

With “QVQLVESGGGLIQAGGSRRLSCAASGIIFYPYTMGWYRQARGKERELVAAIRQSGTSTYYADSVKGRFTISRDNAKNTVYLQMNSLKPEDTAVYYCNADDHIYWRKGYDYWGQGTQVTVSS”, the “polyreactivity (PSR sort gate)” value was “low polyreactivity”.

Turning to “QVQLVESGGGLLKAGGSLRLSCAASGRIFDIYNMGWYRPAPGKERELVAAISSSGGRTYYADSVKGRFTISRDNAKTTVYLQMKSVKPEDTAVYYGAARPSKYVGSRGYDYWGQGTQVTVSS”, the “polyreactivity (PSR sort gate)” value is “high polyreactivity”.

As to “QVQLVESGGGLLQAGGRLRLSCAASVSIFTRYDMGWYRQAPGKEREFVAAISRGGGSTYYADSVKVRFTISLDNAKNTVYLQMISLKPENTAVYYCAPGVARYVKTASDYWGHGTQVTVSS”, the “polyreactivity (PSR sort gate)” value is given as “high polyreactivity”.

“QVQLVESGGGLLQAGGSLLLSCAASGITFYDNAMGWYRQAPGKERELVAGISYDGDSTYADSVKGRFTISRDNAKNTVYLQMNSLKPEDTAVYYCAALGPYEWLWAGDYWGQGTQVTVSS”: the “polyreactivity (PSR sort gate)” value was “low polyreactivity”.

“QVQLVESGGGLLQAGGSLPLSCAASGFTFVPYAMGLYIQAPGKERELDAAISSRGDSTYYADSVKGRFTISRDNAKNTVYLQMIRLSPEDTAFYYCIARTTPHMDYWGQGTQVTVSS”: the “polyreactivity (PSR sort gate)” value is “low polyreactivity”.

Take “QVQLVESGGGLLQAGGSLRISCAASGSTFYYYAMGWYRQAPGKERELVAAISRGGGSTYYADSVKGRFTISRDNAKNTVYLQMNSLKPEDTAVYYCAARRVGGGFYTWRNPAYEYWGQGTQVTVSS”: the “polyreactivity (PSR sort gate)” value is reported as “high polyreactivity”.

As for “QVQLVESGGGLLQAGGSLRLIWAASGIIFVKNSMGWYRQAPGKERELVAAITVSGSRTYYADSVKGRFTISRDNAKNTVYLQMNSLKPEDTAVYYCNAYPYYRGRNMDSWGQGTQVTVSS”, the “polyreactivity (PSR sort gate)” value is recorded as “high polyreactivity”.

On to “QVQLVESGGGLLQAGGSLRLSCAASGFIFADNAMGRYIQAPGKERELVAGITSGGITNYADSVKGRFTISRDNAKNTVYLQMNSLKPEDSAVYYCAVYYRRWLSRYDYWGQGTQVTVSA”, for which the “polyreactivity (PSR sort gate)” value is listed as “low polyreactivity”.

With “QVQLVESGGGLLQAGGSLRLSCAASGFIFRFNAMGWYRQAPWTERELVAVIRWSSGSTYYADSVKGRFTISRDNAKNTVYLQMNSRKPEDTAVYYCAAVDDEYSIVWYDYWGQGTQVTVSA”, the “polyreactivity (PSR sort gate)” value is “low polyreactivity”.

For “QVQLVESGGGLLQAGGSLRLSCAASGFTFFIYAMGWYRQAPGKEREFVAAITGSGGSTYYADSVKGRFRISRDNPKNTVYLLMNSLKPEDTAVYYCNKLSYGRSGYWGQGTQVTVSS”, the “polyreactivity (PSR sort gate)” value was “high polyreactivity”.

Regarding “QVQLVESGGGLLQAGGSLRLSCAASGFTIYRYAMGWYRQAPGKERELVGAITGGGGSTYYADSVKGRFTISRDNAKNTVYLQMNSLKPEDTAVYYCAVDVYHKGQYRWSYVYWGQGTQVTVSS”, the “polyreactivity (PSR sort gate)” value is recorded as “low polyreactivity”.

Regarding “QVQLVESGGGLLQAGGSLRLSCAASGGTFTWYAMGWYRQAPGKERELVAAISSDGSTYYADSVKGRFTISRDNAKNTVYLQMNSLKPEDTAVYYCAAYSSWGGFDYWGQGTQVTVSS”, the “polyreactivity (PSR sort gate)” value is reported as “low polyreactivity”.

For “QVQLVESGGGLLQAGGSLRLSCAASGITFYRNAMGWYRQAPGKERELVAAITWSGGSTYYADSVKGRFTISRDYAKNTVYLQMNSLKPEDSAVYYCNADYRHRYYWGQGTQVTVSS”, the “polyreactivity (PSR sort gate)” value is on record as “high polyreactivity”.

For the sequence “QVQLVESGGGLLQAGGSLRLSCAASGLTFVGYDMGWYRQAPGKERELVAAISTGGGSTYYADSVKGRFTISRDNAMNTVYLKMNSLKPEDTAVYYCNKLRLHGDRYDYWGQGTQVTVSS”, the “polyreactivity (PSR sort gate)” value is “high polyreactivity”.

Regarding “QVQLVESGGGLLQAGGSLRLSCAASGNTFAYNTMGWYIQAPGKERELVAAILTRGGSTYYADSVKGRFTISRDNAKKTVYLQMNSLNREDTAVYYGAADYRFHGYWSYDYWGQGTQVTVSS”, the “polyreactivity (PSR sort gate)” value is on record as “low polyreactivity”.

On to “QVQLVESGGGLLQAGGSLRLSCAASGRIFGRNTKGWYRQAPGKERELVAVISWRGGSTYYADSVKGRFTISRDNAKNSVYLQMNSLKPEDTAVYYCNAKYPFSRRGDYWGQGTQVTVSS”, for which the “polyreactivity (PSR sort gate)” value is “high polyreactivity”.

For the sequence “QVQLVESGGGLLQAGGSLRLSCAASGRTFGHYAMGWYRQAPGKEREFVAAITRGGGRTYYADSVKGRFTISRDNAKNTVYLQMNSLKPEDTAVYYCARKQYWGYDYWGQGTQVTVSS”, the “polyreactivity (PSR sort gate)” value is listed as “low polyreactivity”.

Regarding “QVQLVESGGGLLQAGGSLRLSCAASGRTFKSYTMGWYRQAPGKERELVAAIRASGGITYYADSVKGRFTISRDNAKNTVYLQMNSLKPEDTAVYYCAARPRTRYDYWGQGTQVTVSS”, the “polyreactivity (PSR sort gate)” value is on record as “high polyreactivity”.

Consider “QVQLVESGGGLLQAGGSLRLSCAASGSISGYYAMGWYRQAPGKERELVASIRYTGARTYYADSVKGRFTISRDNAKNTVYLQMNSLKPEDTAVYYCAADVKRDRVWGGDYWGQGTQVTVSS”, for which the “polyreactivity (PSR sort gate)” value is “low polyreactivity”.

On to “QVQLVESGGGLLQAGGSLRLSCAASGSIYTPYAMGWSRQAPGKERELVATITQSGSSTYYADSVKGRFTISRDNAKNSVYLQMNSLKPEDTAVYYCAADVQNISFDYWGQGTQVTVSS”, for which the “polyreactivity (PSR sort gate)” value is “low polyreactivity”.

Consider “QVQLVESGGGLLQAGGSLRLSCAASGSMFGLYAMGWYRQAPGKERELVAAISKSGGSTYYADSVKGRFTISRDNAKNTVYLQMNSLKPEDTAVYFCAARQYPRAGFDYWGQGTQVTVSS”, for which the “polyreactivity (PSR sort gate)” value is recorded as “high polyreactivity”.

For “QVQLVESGGGLLQAGGSLRLSCAASGSTCHRNTMGWSRQAPGKESELVAGISLRGVRTYYADSVKSRFTISRDNAKNTVYLQMNSLKPEDTAVYYCAAGGPYTRNFKLGYWGQGTQVTVSS”, the “polyreactivity (PSR sort gate)” value is recorded as “high polyreactivity”.

Consider “QVQLVESGGGLLQAGGSLRLSCAASGSTSPANAMGWYRQAPGKERELVAVINSGGGTNYADSVKGRFTISRDNAKNTVYLQMNCLKPEDTAVYYCAKGYRRSFIGYWYLKYGYWGQGSQVTVSS”, for which the “polyreactivity (PSR sort gate)” value was “high polyreactivity”.

For the sequence “QVQLVESGGGLLQAGGSLRLSCAASVSIFDSYAMGWYREAPGKERELVAVISESGGTTYNADSVKGRFTISRDNAKNTVYLQMNSLKPEDTAVYYCAAVWYFQFGVWGYYWGQGTQVTVSS”, the “polyreactivity (PSR sort gate)” value is given as “low polyreactivity”.

As to “QVQLVESGGGLLQAGGSLRLSCAASVSIFEYYPMGWYRPAPGKERELVADITWSGGSTYYADSVKGRFTISRDNAKNTVDLQMNSLKPEDSAVYYCAKGYYVYGIFHRFGYYWGQGTQVTVSS”, the “polyreactivity (PSR sort gate)” value is reported as “high polyreactivity”.

For the sequence “QVQLVESGGGLLQAGGSLRLSCADSGRTFGGYSMGWYRQATGKERELVAAISKRSGSTYYADSVKGRFTISRVNAKNTVYLQMNSLKPEDTAVYYCNKVWFQRSVQPVEYDYWGQGTQVTVSS”, the “polyreactivity (PSR sort gate)” value is given as “high polyreactivity”.

On to “QVQLVESGGGLLQAGGSLRVSCAASGSIFHENAMGWYRQAPGKERELVAAIDQTGSTYADSVKGRFTISRDNAKNTVYLQMNSLKPEDTAVYYCAKGDVSLDYPSLEFDYWGQGSQVTVSS”, for which the “polyreactivity (PSR sort gate)” value was “low polyreactivity”.

As to “QVQLVESGGGLLQAGGSRRLSCAASGRTFYSYGMGWYRRAPGKERELVARNTWSGGTYYADSVKGRFTISRDNAKNTVYLQMNSLKPEDTAVYYCAKRSYYWEYYYWGQGTQVTVSA”, the “polyreactivity (PSR sort gate)” value is “high polyreactivity”.

For the sequence “QVQLVESGGGLLQAGGTLRLSCAASGSTFSKNAMGWYRQAPGKERELVAAISSRGGNTYYADSVKGRFTISRDNAKNTVYLQMNSLKPEDTAVYYCAKALRTYQRTGWYDYWGQGTQVTVSS”, the “polyreactivity (PSR sort gate)” value is “high polyreactivity”.

For the sequence “QVQLVESGGGLLQAGVSLRLSCAASGRIYSKYAMGRYRQAPGKERELVAAITYSGGSTYYADSVKGRFTISRDNAKNTVYLQMNSLKPEDSAVYYCAAVHCTSYSKWFGYWGQGTQVSVSS”, the “polyreactivity (PSR sort gate)” value was “low polyreactivity”.

Take “QVQLVESGGGLVEAGGSLRLICAASGSIFYFYGMGWYRQAPGKEREVVAAITYSGGSTYYADSVKGRYTISRDNAKNTVDLQMNSLIPEDTAVYYCNADSVLELYWKMDYWGQGTQVTVSS”: the “polyreactivity (PSR sort gate)” value was “low polyreactivity”.

In the case of “QVQLVESGGGLVEAGGSLRLSCAASARTFIGNAMVWYRQAPGKERELVAGIDSDGSTNYADSVNGRFTSSRDNAKNTVYLQMNSLKPEDTAVYYCAAVQGYRFYEYYYWGQGTQVTVSS”, the “polyreactivity (PSR sort gate)” value is given as “low polyreactivity”.
